Experimental data published in paper PMC4502909.

Molecular target: Pig heart citrate synthase (pig) (UniProt P00889)
UniProt P00889, sequence (P00889 28-464): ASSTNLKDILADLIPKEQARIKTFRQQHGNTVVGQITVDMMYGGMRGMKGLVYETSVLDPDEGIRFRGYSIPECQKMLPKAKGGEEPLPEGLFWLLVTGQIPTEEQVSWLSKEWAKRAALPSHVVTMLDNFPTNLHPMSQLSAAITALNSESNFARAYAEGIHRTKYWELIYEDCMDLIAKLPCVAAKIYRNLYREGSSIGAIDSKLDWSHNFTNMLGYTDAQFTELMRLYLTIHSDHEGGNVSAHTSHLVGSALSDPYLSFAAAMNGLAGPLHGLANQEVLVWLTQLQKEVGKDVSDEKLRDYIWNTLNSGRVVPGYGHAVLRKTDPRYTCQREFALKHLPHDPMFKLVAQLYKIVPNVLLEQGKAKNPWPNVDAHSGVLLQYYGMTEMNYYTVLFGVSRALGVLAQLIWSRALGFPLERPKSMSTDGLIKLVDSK

With “rHtrA2 (HtrA2-ΔTM-Ser619Ala-His6), secreted soluble C-terminal region of Staphylococcus aureus strain COL HtrA2 (domain or fragment)” the reduction of the thermal aggregation of citrate synthase (0.8 µM, 44°C, absorbance/light scattering at 650 nm) by 5 µM rHtrA2 was 30%.

For “rHtrA1 (HtrA1-ΔTM-Ser255Ala-His6), secreted soluble C-terminal region of Staphylococcus aureus strain COL HtrA1 (domain or fragment)”, the reduction of the thermal aggregation of citrate synthase (0.8 µM, 44°C, absorbance/light scattering at 650 nm) by 5 µM rHtrA1 was 30%.
